# Measured values from article PMC12678787, “Insects evolved a monomeric histone-fold domain in the CENP-T protein family”.
# T1: bmCENP-T patch 1 mutant (Bombyx mori, UniProt A0A8R2HRP3 894-1016, K895A;R896A;K907A;R908S;K911A)
# T1 sequence: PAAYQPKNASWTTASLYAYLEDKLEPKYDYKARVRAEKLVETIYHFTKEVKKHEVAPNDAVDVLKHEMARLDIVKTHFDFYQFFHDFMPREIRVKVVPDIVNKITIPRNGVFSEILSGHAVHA
# T2: bmCENP-T patch 2 mutant (Bombyx mori, UniProt A0A8R2HRP3 894-1016, R928S;R963S)
# T2 sequence: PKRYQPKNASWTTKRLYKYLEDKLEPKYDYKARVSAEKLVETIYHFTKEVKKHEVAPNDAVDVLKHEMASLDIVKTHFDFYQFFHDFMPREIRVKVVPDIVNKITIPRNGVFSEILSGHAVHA
# T3: bmCENP-T HFD WT (Bombyx mori, UniProt A0A8R2HRP3 894-1016)
# T3 sequence: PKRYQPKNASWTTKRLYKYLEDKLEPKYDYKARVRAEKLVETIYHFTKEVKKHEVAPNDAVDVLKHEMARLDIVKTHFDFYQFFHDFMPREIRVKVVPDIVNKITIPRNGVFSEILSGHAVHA
# B1: 12 bp DNA (AA357/AA358) (dsDNA)
# DNA 1: TAGACAGCTCTA
# DNA 2: TAGAGCTGTCTA
# Legend:
# bmCENP-T patch 1 mutant = biological target: T1, bmCENP-T patch 1 mutant; assay: EMSA; 100 mM NaCl; EMSA: 100 mM NaCl, 4 °C 30 min, 300 ng DNA, 8% glycerol, 5% native PAGE, GelRed stain; protein stock in 10 mM HEPES pH 7.5, 500 mM NaCl; binding buffer and pH not stated; details: protein: recombinant; tags: GST tag cleaved with HRV 3C; blunt
# bmCENP-T patch 2 mutant = biological target: T2, bmCENP-T patch 2 mutant; assay: EMSA; 100 mM NaCl; no effect of mutation; EMSA: 100 mM NaCl, 4 °C 30 min, 300 ng DNA, 8% glycerol, 5% native PAGE, GelRed stain; protein stock in 10 mM HEPES pH 7.5, 500 mM NaCl; binding buffer and pH not stated; details: protein: recombinant; tags: GST tag cleaved with HRV 3C; blunt
# bmCENP-T HFD WT = biological target: T3, bmCENP-T HFD WT; assay: EMSA; 100 mM NaCl; maximum complex at 5x molar excess of protein; EMSA: 100 mM NaCl, 4 °C 30 min, 300 ng DNA, 8% glycerol, 5% native PAGE, GelRed stain; protein stock in 10 mM HEPES pH 7.5, 500 mM NaCl; binding buffer and pH not stated; details: protein: recombinant; tags: GST tag cleaved with HRV 3C (vector-derived N-terminal residues may remain); blunt
binder,measurement,setting,value
B1,binding result,bmCENP-T patch 1 mutant,no binding
same,binding result,bmCENP-T patch 2 mutant,binds
same,binding result,bmCENP-T HFD WT,binds
